# Read-outs that look alike come from different tables or passages of the source.
# Key:
# [1] = target: T1, HPV-11 E1 helicase (Human papillomavirus 11, UniProt P04014); experiment: E1 helicase SPA high-throughput assay, inhibition (IC50 curves); type: biochemical, human papillomavirus type 11
# T1 construct: made in house; host or cells: SF21 insect cells, recombinant baculovirus (Bac-to-Bac, pFASTBAC1)
# Excerpt: In this assay, the duplex DNA substrate consists of M13 single-stranded DNA (about 8000 bases) to which is annealed a 19 base oligodeoxynucleotide (see FIG. 6). This partial duplex is extended to 24 bases with the incorporation of [^33 P]-labeled dATP by a reaction with the Klenow fragment of DNA polymerase I. Helicase activity results in the separation of this radiolabeled oligo from the M13 DNA. In the absence of a functional helicase, the double-stranded DNA substrate is stable for several hours at the assay temperature.
# To detect activity, a second 24-base deoxyoligonucleotide, complementary to the substrate oligo, is added to the reaction mixture in a second step. […]
# In the third step, streptavidin-coated SPA beads (Amersham Life Science, code TRKQ7030) are added to the mixture. […] Thus radiolabeled oligo annealed to the biotinylated oligo will be detected, whereas unreacted substrate still hybridized to M13 is not in close proximity to the beads and will not be detected.
# In the presence of an inhibitor, less substrate is unwound, so a lower signal is detected. […] The M13 DNA competes with the labeled M13 substrate and inhibits the signal detected. […]
# Assay buffer, used for all dilutions, consisted of 20 mM MES, pH 7.0, 10% glycerol, 1.0 mM DTT, and 0.05 mM EDTA. […] Sufficient E1 is used to give approximately 20% unwinding (as determined in Example 9). […]
# [2] = tested on: partial duplex DNA substrate; conditions: Yang, PNAS (1993), assayed at 32°; cited from earlier work
# [3] = target: HPV-11 E2 protein (human papillomavirus type 11) (UniProt P04015); experiment: E2-dependent E1 DNA binding assay: E1/E2/ori complex with radiolabeled origin probe, captured with K72 antiserum on protein A-SPA beads, scintillation counting
# [4] = tested on: partial duplex DNA substrate; experiment: Helicase specific activity (unwinding of partial duplex DNA), this work; type: biochemical; conditions: 37°, enzyme concentration greater than substrate
# Experimental: The substrate for the analytical helicase assay consisted of a […] oligonucleotide (GTAAAACGACCAGTGCCAAGC) (SEQ ID NO. 11) end-labeled using [^33 P]ATP and polynucleotide kinase, annealed to M13mp18. Combined helicase/ATPase reactions contained 800 or 1600 ng of E1, 2 mM MgCl2, 1 mM ATP, and 1 μM helicase substrate (concentration in nucleotides) in a total volume of 80 μL of helicase assay buffer (20 mM MES, pH 7.0, 1 mM DTT, 0.05 mM EDTA, 10% glycerol). Reactions were incubated for 2 h at 37° and then placed on ice. […]
# Helicase activity was quantitated as follows:
# A separate reaction mixture, containing no enzyme was heated to 95° for 10 min., and the resulting free substrate oligonucleotide (completely denatured) was detected as described for reaction mixtures. […] Quantitation of unwinding is calculated relative to the boiled sample with background subtracted.
# In all cases the enzyme concentration was greater than the substrate concentration and the substrate was partial duplex DNA. […] The SV-40 TAg was also assessed in the literature and V of 50 and 80 % unwinding/μm protein/min were obtained from these groups respectively (Goetz, JBC (1988); Stahl, EMBO (1986)). […]
molecule,measurement,setting,value
CC[n+]1c(-c2ccccc2)c2cc(N)ccc2c2ccc(N)cc21 [ethidium bromide],IC50,[1],~4 µM
"BPV E1: bovine papillomavirus E1 helicase, literature value (Yang, PNAS 1993)",Helicase Activity V (% unwinding/μM protein/min),[2],2.9 % unwinding/μM protein/min
HPV-11 His-E1 protein (wild type) (enzyme),signal over background (fold),[3],20 to 30 fold
"HPV-11 E1: His-tagged E1 helicase of human papillomavirus type 11, low-salt nuclear extraction, Ni affinity purified (SEQ ID NO.26) (protein, His tag) MADDSGTENEGSGCTGWFMVEAIVEHTTGTQISEDEEEEVEDSGYDMVDFIDDRHITQNSVEAQALFNRQEADAHYATVQDLKRKYLGSPYVSPISNVANAVESEISPRLDAIKLTTQPKKVKRRLFETRELTDSGYGYSEVEAATQVEKHGDPENGGDGEERDTGRDIEGEGVEHREAEAVDDSTREHADTSGILELLKCKDIRSTLHGKFKDCFGLSFVDLIRPFKSDRTTCADWVVAGFGIHHSIADAFQKLIEPLSLYAHIQWLTNAWGMVLLVLIRFKVNKSRCTVARTLGTLLNIPENHMLIEPPKIQSGVAALYWFRTGISNASTVIGEAPEWITRQTVIEHSLADSQFKLTEMVQWAYDNDICEESEIAFEYAQRGDFDSNARAFLNSNMQAKYVKDCAIMCRHYKHAEMKKMSIKQWIKYRGTKVDSVGNWKPIVQFLRHQNIEFIPFLSKLKLWLHGTPKKNCIAIVGPPDTGKSCFCMSLIKFLGGTVISYVNSCSHFWLQPLTDAKVALLDDATQPCWTYMDTYMRNLLDGNPMSIDRKHRALTLIKCPPLLVTSNIDISKEEKYKYLHSRVTTFTFPNPFPFDRNGNAVYELSDANWKCFFERLSSSLDIEDSEDEEDGSNSQAFRCVPGSVVRTL",Helicase Activity V (% unwinding/μM protein/min),[4],2.5 % unwinding/μM protein/min
"HPV-6a E1: His-tagged E1 helicase of human papillomavirus type 6a purified according to the invention (SEQ ID NO.27) (protein, His tag) MADDSGTENEGSGCTGWFMVEAIVQHPTGTQISDDEDEEVEDSGYDMVDFIDDSNITHNSLEAQALFNRQEADTHYATVQDLKRKYLGSPYVSPINTIAEAVESEISPRLDAIKLTRQPKKVKRRLFQTRELTDSGYGYSEVEAGTGTQVEKHGVPENGGDGQEKDTGRDIEGEEHTEAEAPTNSVREHAGTAGILELLKCKDLRAALLGKFKECFGLSFIDLIRPFKSDKTTCLDWVVARFGIHHSISEAFQKLIEPLSLYAHIQWLTNAWGMVLLVLLRFKVNKSRSTVARTLATLLNIPENQMLIEPPKIQSGVAALYWFRTGISNASTVIGEAPEWITRQTVIEHGLADSQFKLTEMVQWAYDNDICEESEIAFEYAQRGDFDSNARAFLNSNMQAKYVKDCATMCRHYKHAEMRKMSIKQWIKHRGSKIEGTGNWKPIVQFLRHQNIEFIPFLTKFKLWLHGTPKKNCIAIVGPPDTGKSYFCMSLISFLGGTVISHVNSSSHFWLQPLVDAKVALLDDATQPCWIYMDTYMRNLLDGNPMSIDRKHKALTLIKCPPLLVTSNIDITKEDKYKYLHTRVTTFTFPNPFPFDRNGNAVYELSNTNWKCFFERLSSSLDIQDSEDEEDGSNSQAFRCVPGTVVRTL",Helicase Activity V (% unwinding/μM protein/min),[4],2.3 % unwinding/μM protein/min

# Reference: patent US6306580A, “Preparation of human papillomavirus E1 having helicase activity and method therefor” (priority 1999, dated 2001)
